Experimental data: paper PMC3247260, “Domain Analysis Reveals That a Deubiquitinating Enzyme USP13 Performs Non-Activating Catalysis for Lys63-Linked Polyubiquitin” (PLoS ONE, 2011)
Changes are numbered by the printed parent chain. Names may count otherwise.

How the values were obtained:
Conditions in all cases: both partners purified
GST-fused Ub = molecular target: T1, GST-fused Ub (UniProt P0CG48 1-76); assay: pull-down; GST-fused Ub, ISG15, SUMO1 or SUMO2 loaded on glutathione agarose, USP13 or USP13-UBA12 (~100 µM) added; 1-hr incubation, washed three times, eluted by GSH buffer; SDS-PAGE with Coomassie blue staining
T1 construct: ubiquitin (Ub); cDNA inserted into pGEX-4T-3; also called GST-Ub; source: E. coli BL21, purified (glutathione agarose)

linear diUb = molecular target: T2, linear diUb (UniProt P0CG48 1-76; P0CG48 1-76); assay: ITC; USP13-UBA12 (1.25 mM stock) injected into K63-, K48-, linear diUb (0.1 mM) or monoUb (0.2 mM), 25 injections of 1.5 µL; 50 mM Tris, 150 mM NaCl, pH 7.5; 25°C
T2 construct: ubiquitin, first unit of the linear (head-to-tail) dimer; ubiquitin, second unit of the linear (head-to-tail) dimer; also called linear linked diUb

ubiquitin (Ub) [1] = molecular target: T3, ubiquitin (Ub) (UniProt P0CG48 1-76); assay: NMR titration; 15N-labeled USP13-UBA12 or USP5-ZnF (~0.2 mM) titrated with Ub (or ISG15), 1H-15N HSQC spectra; 20 mM phosphate, 50 mM NaCl, pH 6.5
T3 construct: ubiquitin, free monomer; only a GST-fused Ub construct is named in the methods; also called free Ub; monoUb

ubiquitin (Ub) [2] = molecular target: T3, ubiquitin (Ub); assay: ITC; Ub (1 mM stock) injected into USP13-ZnF, USP5-ZnF or its mutants (50 µM), 25 injections of 8 µL; 50 mM Tris, 150 mM NaCl, pH 7.5, 1 mM DTT; 25°C

B1: USP13 (residues 21-863) (enzyme, human, UniProt Q92995 21-863, looked up)
chain: AGDIGELLVPHMPTIRVPRSGDRVYKNECAFSYDSPNSEGGLYVCMNTFLAFGREHVERHFRKTGQSVYMHLKRHVREKVRGASGGALPKRRNSKIFLDLDTDDDLNSDDYEYEDEAKLVIFPDHYEIALPNIEELPALVTIACDAVLSSKSPYRKQDPDTWENELPVSKYANNLTQLDNGVRIPPSGWKCARCDLRENLWLNLTDGSVLCGKWFFDSSGGNGHALEHYRDMGYPLAVKLGTITPDGADVYSFQEEEPVLDPHLAKHLAHFGIDMLHMHGTENGLQDNDIKLRVSEWEVIQESGTKLKPMYGPGYTGLKNLGNSCYLSSVMQAIFSIPEFQRAYVGNLPRIFDYSPLDPTQDFNTQMTKLGHGLLSGQYSKPPVKSELIEQVMKEEHKPQQNGISPRMFKAFVSKSHPEFSSNRQQDAQEFFLHLVNLVERNRIGSENPSDVFRFLVEERIQCCQTRKVRYTERVDYLMQLPVAMEAATNKDELIAYELTRREAEANRRPLPELVRAKIPFSACLQAFSEPENVDDFWSSALQAKSAGVKTSRFASFPEYLVVQIKKFTFGLDWVPKKFDVSIDMPDLLDINHLRARGLQPGEEELPDISPPIVIPDDSKDRLMNQLIDPSDIDESSVMQLAEMGFPLEACRKAVYFTGNMGAEVAFNWIIVHMEEPDFAEPLTMPGYGGAASAGASVFGASGLDNQPPEEIVAIITSMGFQRNQAIQALRATNNNLERALDWIFSHPEFEEDSDFVIEMENNANANIISEAKPEGPRVKDGSGTYELFAFISHMGTSTMSGHYICHIKKEGRWVIYNDHKVCASERPPKDLGYMYFYRRIPS
notes: Ubiquitin-specific protease 13 (USP13, isoT3), human, residues 21-863, cloned into pET-32M; The results call it full-length USP13; the methods give residues 21-863; also called full-length USP13; source: E. coli BL21, purified (Ni-NTA agarose, size-exclusion chromatography)
- binding result (GST-fused Ub): binds

B2: tandem UBA domains of USP13 (USP13-UBA12, residues 652-776) (domain or fragment, human, UniProt Q92995 652-776, looked up)
chain: DIDESSVMQLAEMGFPLEACRKAVYFTGNMGAEVAFNWIIVHMEEPDFAEPLTMPGYGGAASAGASVFGASGLDNQPPEEIVAIITSMGFQRNQAIQALRATNNNLERALDWIFSHPEFEEDSDF
notes: USP13, human, tandem UBA domains (UBA1 and UBA2), residues 652-776, cloned into pET-32M; 15N-labelled in the NMR titrations; source: E. coli BL21, purified (Ni-NTA agarose, size-exclusion chromatography)
- binding result (linear diUb): binds
- binding result (ubiquitin (Ub) [1]): binds
- binding result (GST-fused Ub): binds

B3: USP5-ZnF R222W (domain or fragment, human, UniProt P45974 169-289, looked up)
chain: WDGEVRQVSKHAFSLKQLDNPARIPPCGWKCSKCDMRENLWLNLTDGSILCGRWYFDGSGGNNHAVEHYRETGYPLAVKLGTITPDGADVYSYDEDDMVLDPSLAEHLSHFGIDMLKMQKT
notes: USP5, human, ZnF domain, residues 169-289, point mutant in pET-M; source: E. coli BL21, purified (Ni-NTA agarose, size-exclusion chromatography)
- Kd (ubiquitin (Ub) [2]): 9.1 µM

B4: USP5-ZnF Y261F (domain or fragment, human, UniProt P45974 169-289, looked up)
chain: B3 chain with W54R, Y93F
notes: as for B3
- Kd (ubiquitin (Ub) [2]): 88 µM

B5: USP5-ZnF R222W/Y223F (domain or fragment, human, UniProt P45974 169-289, looked up)
chain: B3 chain with Y55F
notes: as for B3
- Kd (ubiquitin (Ub) [2]): 16 µM

B6: ZnF domain of USP5 (USP5-ZnF, residues 169-289), wild type (domain or fragment, human, UniProt P45974 169-289, looked up)
chain: B3 chain with W54R
notes: USP5 (isopeptidase T, isoT), human, zinc finger (ZnF) domain, residues 169-289, cloned into pET-M; also called WT; source: E. coli BL21, purified (Ni-NTA agarose, size-exclusion chromatography)
- Kd (ubiquitin (Ub) [2]): 2.3 µM

B7: USP5-ZnF Y223F (domain or fragment, human, UniProt P45974 169-289, looked up)
chain: B3 chain with W54R, Y55F
notes: as for B3
- Kd (ubiquitin (Ub) [2]): 6.4 µM

B8: USP5-ZnF R221K (domain or fragment, human, UniProt P45974 169-289, looked up)
chain: B3 chain with R53K, W54R
notes: as for B3
- Kd (ubiquitin (Ub) [2]): 100 µM
